From patent publication US20250382373A1, “ANTI-EGFR/MET ANTIBODIES AND USES THEREOF” (Biocytogen Pharmaceuticals (Beijing) Co., Ltd., priority 2022, published 2025) come the findings set out here.

Where two headings read alike, the source gives them in different places.

The target in test [1] is human MET on SNU-5 cells (human) (UniProt P08581). Kind of test: flow cytometry on SNU-5 cells (evaluated as No binding).
Test [2] has as its target dog MET on dMET-NIH3T3 cells (dog (Canis lupus, printed 'Cans lupus')) (UniProt Q75ZY9). Kind of test: flow cytometry on dMET-NIH3T3 cells (evaluated as No binding).
The target in test [3] is monkey MET on fasMET-NIH3T3 cells (monkey (Macaca fascicularis)). Kind of test: flow cytometry on fasMET-NIH3T3 cells (evaluated as No binding). On the technique in general: Flow cytometry measures light scatter and fluorescence of single cells or particles in a stream.
The target of test [4] is monkey EGFR on CHO-S-fasEGFR cells (monkey (crab-eating macaque; Macaca fascicularis)) (UniProt P55245). Kind of test: flow cytometry on CHO-S-fasEGFR cells (evaluated as No binding).
Test [5] deals with monkey MET on fasMET-NIH3T3 cells (monkey (Macaca fascicularis)). Kind of test: flow cytometry on fasMET-NIH3T3 cells (evaluated as No binding). This is another data set of the same source.
Test [6] has as its target human EGFR on CHO-S-hEGFR cells (human) (UniProt P00533). Kind of test: flow cytometry on CHO-S-hEGFR cells (evaluated as No binding).
Test [7] deals with monkey EGFR on CHO-S-fasEGFR cells (monkey (crab-eating macaque; Macaca fascicularis)) (UniProt P55245). Kind of test: flow cytometry on CHO-S-fasEGFR cells (evaluated as No binding). This is another data set of the same source.
Test [8] has as its target human MET on hMET-NIH3T3 cells (human) (UniProt P08581). Kind of test: flow cytometry on hMET-NIH3T3 cells (evaluated as No binding).
The target of test [9] is His-tagged monkey MET (monkey). Kind of test: SPR (Biacore 8K), Protein A chip.

monkey MET on fasMET-NIH3T3 cells (monkey (Macaca fascicularis)), sequence (chain, as listed by the source limits assumed): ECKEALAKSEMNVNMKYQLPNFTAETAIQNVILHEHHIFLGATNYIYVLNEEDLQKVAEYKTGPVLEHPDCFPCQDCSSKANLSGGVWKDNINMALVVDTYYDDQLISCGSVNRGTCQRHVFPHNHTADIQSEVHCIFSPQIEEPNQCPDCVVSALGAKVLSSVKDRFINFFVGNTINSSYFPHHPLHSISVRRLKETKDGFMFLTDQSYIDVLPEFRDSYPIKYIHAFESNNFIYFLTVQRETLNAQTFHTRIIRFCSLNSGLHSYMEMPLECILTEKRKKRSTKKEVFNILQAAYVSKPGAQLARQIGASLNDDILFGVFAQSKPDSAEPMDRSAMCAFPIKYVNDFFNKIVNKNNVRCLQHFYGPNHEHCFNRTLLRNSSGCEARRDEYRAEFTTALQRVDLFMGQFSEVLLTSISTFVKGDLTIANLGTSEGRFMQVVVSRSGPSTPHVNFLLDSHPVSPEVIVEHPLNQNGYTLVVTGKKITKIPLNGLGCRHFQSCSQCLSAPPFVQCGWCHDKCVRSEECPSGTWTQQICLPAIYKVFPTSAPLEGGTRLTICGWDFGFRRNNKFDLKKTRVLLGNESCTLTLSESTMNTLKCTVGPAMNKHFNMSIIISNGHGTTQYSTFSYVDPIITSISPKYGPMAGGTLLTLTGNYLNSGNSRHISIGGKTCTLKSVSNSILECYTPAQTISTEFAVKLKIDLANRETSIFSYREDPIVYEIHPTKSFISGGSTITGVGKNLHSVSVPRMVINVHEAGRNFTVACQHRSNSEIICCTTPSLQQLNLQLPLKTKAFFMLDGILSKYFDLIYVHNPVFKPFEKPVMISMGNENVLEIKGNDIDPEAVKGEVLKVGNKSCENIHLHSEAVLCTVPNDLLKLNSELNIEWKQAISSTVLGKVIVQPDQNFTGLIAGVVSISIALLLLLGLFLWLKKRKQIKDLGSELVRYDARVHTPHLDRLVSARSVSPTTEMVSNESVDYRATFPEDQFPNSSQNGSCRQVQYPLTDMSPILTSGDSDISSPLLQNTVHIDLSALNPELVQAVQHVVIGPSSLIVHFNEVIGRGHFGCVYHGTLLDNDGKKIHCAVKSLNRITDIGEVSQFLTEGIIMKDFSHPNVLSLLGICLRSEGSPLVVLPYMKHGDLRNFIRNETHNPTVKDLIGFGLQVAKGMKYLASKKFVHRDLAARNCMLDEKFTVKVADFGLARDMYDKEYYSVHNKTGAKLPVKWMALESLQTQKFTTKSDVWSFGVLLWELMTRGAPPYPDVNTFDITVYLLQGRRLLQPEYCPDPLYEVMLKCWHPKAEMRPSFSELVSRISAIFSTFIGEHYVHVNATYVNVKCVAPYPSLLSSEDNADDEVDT
human MET on hMET-NIH3T3 cells (human), sequence (P08581 25-1390 limits assumed): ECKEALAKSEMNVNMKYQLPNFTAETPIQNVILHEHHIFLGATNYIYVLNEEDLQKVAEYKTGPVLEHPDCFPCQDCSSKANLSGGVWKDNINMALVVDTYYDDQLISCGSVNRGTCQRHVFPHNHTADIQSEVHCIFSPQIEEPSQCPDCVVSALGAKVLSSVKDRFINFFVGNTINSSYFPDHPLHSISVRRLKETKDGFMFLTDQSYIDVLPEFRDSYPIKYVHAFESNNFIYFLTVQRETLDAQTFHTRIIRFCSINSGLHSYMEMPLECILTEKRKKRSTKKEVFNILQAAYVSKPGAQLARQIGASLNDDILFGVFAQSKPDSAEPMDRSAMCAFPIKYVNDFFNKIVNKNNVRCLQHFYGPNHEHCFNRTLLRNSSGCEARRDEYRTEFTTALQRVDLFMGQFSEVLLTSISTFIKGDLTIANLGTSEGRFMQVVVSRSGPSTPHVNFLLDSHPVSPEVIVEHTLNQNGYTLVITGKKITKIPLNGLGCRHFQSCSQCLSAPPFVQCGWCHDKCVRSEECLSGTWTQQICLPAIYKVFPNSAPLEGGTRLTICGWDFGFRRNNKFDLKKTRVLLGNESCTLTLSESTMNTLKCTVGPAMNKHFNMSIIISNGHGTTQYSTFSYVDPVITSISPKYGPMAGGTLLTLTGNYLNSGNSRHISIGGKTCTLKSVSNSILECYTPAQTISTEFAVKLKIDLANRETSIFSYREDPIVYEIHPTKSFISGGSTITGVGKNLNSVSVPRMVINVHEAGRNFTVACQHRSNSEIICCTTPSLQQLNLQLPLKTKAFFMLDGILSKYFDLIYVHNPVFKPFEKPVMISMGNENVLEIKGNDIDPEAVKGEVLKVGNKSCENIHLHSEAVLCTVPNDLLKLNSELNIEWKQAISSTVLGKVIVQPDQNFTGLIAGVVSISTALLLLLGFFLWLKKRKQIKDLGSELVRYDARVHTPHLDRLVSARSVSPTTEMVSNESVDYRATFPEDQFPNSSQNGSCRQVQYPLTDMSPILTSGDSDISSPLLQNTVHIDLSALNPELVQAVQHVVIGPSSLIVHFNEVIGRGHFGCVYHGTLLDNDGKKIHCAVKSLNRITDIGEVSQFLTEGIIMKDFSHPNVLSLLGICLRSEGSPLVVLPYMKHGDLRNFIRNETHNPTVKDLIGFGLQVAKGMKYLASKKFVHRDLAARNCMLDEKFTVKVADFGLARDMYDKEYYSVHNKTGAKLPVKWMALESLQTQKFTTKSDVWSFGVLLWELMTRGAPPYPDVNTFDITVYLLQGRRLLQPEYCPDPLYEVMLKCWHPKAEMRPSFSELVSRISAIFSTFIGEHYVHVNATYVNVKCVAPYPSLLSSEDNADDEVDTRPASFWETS
human MET on SNU-5 cells (human), sequence (P08581 25-1390): as the sequence (P08581 25-1390 limits assumed) above

Consider NC, for which the Percentage of Positive Cells came to 2.5% in [1]; 0.29% in test [2]; 1.29% in test [3]; 0.65% in [4]; 0.8% in test [5]; 0% in test [6]. The Percentage of Positive Cells in test [7] stood at 0.2%; in [8], 1.01%.
As for Telisotuzumab analog (antibody), in [9], the Kd (as a rule, the equilibrium constant for the complex coming apart) turned out to be 1.5 nM; the dissociation rate constant (koff) (in general, the first-order rate constant of dissociation) came out at 9.41e-05 s⁻¹; the on-rate (kon) – broadly, the rate constant with which the complex forms – was determined as 62600 M⁻¹ s⁻¹.
